{"source": "paper PMC8951179", "key": {"[1]": {"target": "GST-Ku70_1–250_Q65A/Q68A (human) (UniProt P12956)", "experiment": "pull-down; GST pull-down: 100 nM GST-Ku70 variant as bait on glutathione-agarose, 100 or 200 nM His6-IN; buffer A (20 mM Hepes pH 7.5, 100 mM NaCl, 7.5 mM MgCl2, 2 mM 2-mercaptoethanol, 50 µg/mL BSA, 0.1% NP40), room temperature; Western blot"}, "[2]": {"target": "GST-Ku70_1–250_S69A (human) (UniProt P12956)", "experiment": "pull-down; GST pull-down: 100 nM GST-Ku70 variant as bait on glutathione-agarose, 100 or 200 nM His6-IN; buffer A (20 mM Hepes pH 7.5, 100 mM NaCl, 7.5 mM MgCl2, 2 mM 2-mercaptoethanol, 50 µg/mL BSA, 0.1% NP40), room temperature; Western blot"}}}
{"substance": "HIV-1 integrase carrying N-terminal His6-tag (natural protein)", "values": [{"measurement": "reduction in the protein binding efficiency (control Ku70 1–250)", "setting": "[1]", "value": "10 to 15", "unit": "%"}, {"measurement": "IN binding activity, % of the wild-type protein", "setting": "[2]", "value": "55 to 73", "unit": "%"}]}
